Assay [1] addresses T1, miR2-FL-WT-T7 (mouse iRhom2 full length wild type C-terminally tagged with 3 consecutive copies of the T7 … (mouse, UniProt Q80WQ6 1-827)).
T1 construct: also called mouse iRhom2 variant expressed by MEF-DKO-miR2-FL-WT-T7 cells
T1 sequence: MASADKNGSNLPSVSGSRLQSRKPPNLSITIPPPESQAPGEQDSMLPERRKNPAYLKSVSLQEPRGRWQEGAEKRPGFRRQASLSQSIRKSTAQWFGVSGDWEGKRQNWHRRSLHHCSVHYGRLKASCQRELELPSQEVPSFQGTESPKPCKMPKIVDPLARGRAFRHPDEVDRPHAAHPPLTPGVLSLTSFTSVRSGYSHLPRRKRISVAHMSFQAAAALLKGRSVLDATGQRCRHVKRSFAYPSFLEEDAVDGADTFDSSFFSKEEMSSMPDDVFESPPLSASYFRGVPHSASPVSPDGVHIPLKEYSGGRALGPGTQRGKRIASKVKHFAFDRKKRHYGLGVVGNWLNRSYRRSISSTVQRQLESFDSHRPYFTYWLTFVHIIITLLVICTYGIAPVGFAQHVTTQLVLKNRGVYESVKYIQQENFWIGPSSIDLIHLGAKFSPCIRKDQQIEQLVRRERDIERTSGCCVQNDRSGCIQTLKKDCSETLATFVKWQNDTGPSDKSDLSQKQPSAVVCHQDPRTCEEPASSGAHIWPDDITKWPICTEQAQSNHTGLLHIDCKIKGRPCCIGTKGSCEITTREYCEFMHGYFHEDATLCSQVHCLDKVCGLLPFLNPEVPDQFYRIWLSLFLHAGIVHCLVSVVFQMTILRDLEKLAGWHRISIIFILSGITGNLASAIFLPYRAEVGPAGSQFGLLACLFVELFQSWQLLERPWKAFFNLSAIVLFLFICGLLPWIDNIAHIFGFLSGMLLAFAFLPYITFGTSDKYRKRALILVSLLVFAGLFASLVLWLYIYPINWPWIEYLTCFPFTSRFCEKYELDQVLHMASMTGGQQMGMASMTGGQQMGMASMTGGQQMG
Put plainly: FACS on cells of the row mouse iR2 wild type, vs human iR2 wild type = 100%. The source says:
In brief, immortalized MEF-DKO-hiR2-FL-WT-T7 cells, MEF-DKO-miR2-FL-WT-T7 cells and MEF-DKO-hiR2-FL-R441K-T7, MEF-DKO-hiR2-FL-K443R-T7, MEF-DKO-hiR2-FL-V459I-T7, MEF-DKO-hiR2-FL-G481Q-T7, MEF-DKO-hiR2-FL-L488R-T7, MEF-DKO-hiR2-FL-L493I-T7, MEF-DKO-hiR2-FL-D496T-T7, MEF-DKO-hiR2-FL-H505R-T7, MEF-DKO-hiR2-FL-Q512L-T7, MEF-DKO-hiR2-FL-R513K-T7, MEF-DKO-hiR2-FL-D528N-T7, MEF-DKO-hiR2-FL-P533-T7, MEF-DKO-hiR2-FL-M534S-T7, MEF-DKO-hiR2-FL-G540S-T7, MEF-DKO-hiR2-FL-R543Q-T7, MEF-DKO-hiR2-FL-T544P-T7, MEF-DKO-hiR2-FL-G546A-T7, MEF-DKO-hiR2-FL-A547V-T7, MEF-DKO-hiR2-FL-R582Q-T7, MEF-DKO-hiR2-FL-F588L-T7, MEF-DKO-hiR2-FL-M591I-T7, MEF-DKO-hiR2-FL-E594K-T7, MEF-DKO-hiR2-FL-E626D-T7, MEF-DKO-hiR2-FL-L657I-T7, and MEF-DKO-hiR2-FL-H835Y-T7 cells were harvested with 10 mM EDTA in PBS, washed and resuspended in FACS buffer (PBS, 3% FBS, 0.05% sodium azide), and seeded in Nunc U-bottom 96-well plates (Thermo Fisher Scientific, USA) at approximately 3×10⁵ cells per well. To pellet cells and remove supernatants, the plates were centrifuged at 1,500 rpm and 4° C. for 3 minutes. For primary staining, cells were resuspended in 100 μl per well of either FACS buffer alone (controls) or the purified antibodies 3, 5, 16, 22, 34, 42, 43, 44, 48, and 50 of the present disclosure at 3 μg/ml FACS buffer and incubated on ice for 1 hour. Afterwards, plates were centrifuged at 1,500 rpm and 4° C. for 3 minutes and washed twice with 200 μl per well of FACS buffer. For secondary staining, cells were spun down and resuspended in 100 μl per well of PE-conjugated goat anti-mouse IgG F(ab′)2 detection fragment (Dianova, Germany) diluted 1:100 in FACS buffer. Protected from light, the cell suspensions were incubated on ice for 1 hour. Plates were then centrifuged at 1,500 rpm and 4° C. for 3 minutes and washed three times with 200 μl per well of FACS buffer. Finally, cells were resuspended in 150 μl per well of FACS buffer and analyzed using a BD Accuri™ C6 Plus flow cytometer (Becton Dickinson, Germany).

The target in assay [2] is T2, mouse iR1 wild type (mouse).
T2 construct: wild type; also called mouse iRhom1 wild type; miR1-FL WT
Put plainly: FACS on cells expressing mouse iR1 wild type, vs human iR2 wild type = 100%.

Where a chain is given by its changes, count along the chain named.

T2 sequence (Q6PIX5 whole entry): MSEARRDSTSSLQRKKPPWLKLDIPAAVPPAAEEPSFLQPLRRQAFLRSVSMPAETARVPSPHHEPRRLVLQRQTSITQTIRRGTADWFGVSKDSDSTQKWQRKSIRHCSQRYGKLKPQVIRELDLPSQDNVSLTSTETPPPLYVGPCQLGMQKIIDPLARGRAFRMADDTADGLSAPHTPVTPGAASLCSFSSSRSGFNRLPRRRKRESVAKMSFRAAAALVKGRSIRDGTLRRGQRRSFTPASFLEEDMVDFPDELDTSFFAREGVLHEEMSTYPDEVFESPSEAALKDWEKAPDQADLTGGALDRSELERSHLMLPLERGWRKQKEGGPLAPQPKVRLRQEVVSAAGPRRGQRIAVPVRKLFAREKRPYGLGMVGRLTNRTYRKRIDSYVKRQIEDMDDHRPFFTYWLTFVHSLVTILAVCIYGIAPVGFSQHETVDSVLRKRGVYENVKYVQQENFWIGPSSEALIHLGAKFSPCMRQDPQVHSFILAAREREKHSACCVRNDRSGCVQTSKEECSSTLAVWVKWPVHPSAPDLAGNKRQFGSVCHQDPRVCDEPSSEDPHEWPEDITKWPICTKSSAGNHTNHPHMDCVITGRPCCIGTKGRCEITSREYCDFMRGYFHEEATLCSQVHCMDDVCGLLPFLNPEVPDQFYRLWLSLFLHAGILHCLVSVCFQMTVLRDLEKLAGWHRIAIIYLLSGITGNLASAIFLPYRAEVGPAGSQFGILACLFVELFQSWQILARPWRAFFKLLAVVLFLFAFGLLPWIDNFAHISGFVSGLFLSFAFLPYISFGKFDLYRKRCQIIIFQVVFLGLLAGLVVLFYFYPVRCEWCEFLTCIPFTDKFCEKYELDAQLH

B1: antibody 43 (antibody, V domains shown)
VH: QVALKESGPGILQPSQTLSLTCSFSGFSLSTFGMGVGWIRQSSGKGLEWLANIWWDDDKYYNPALKSRLTISKDASKNQAFLKIANVDTADTATYYCARIGNYGSNYWYFDVWGTGTTVTVSS
VL: QIVLTQSPAIMSASPGERVTMTCSANSRISYMYWYQQKPGSSPRLLIYDTSNLASGVPVRFSGSGSGTSYSLTISRMEAEDAATYNCQQWSSYPLTFGAGTKLELK
notes: Mouse IgG, kappa light chain; also called clone #43
On to B1, for which the “grade of loss of binding vs wild type” value in assay [1] and in assay [2] was 3 grade (3 => 95% loss of binding vs wild type) in each case.

B2: antibody 42 (antibody, V domains shown)
VH: B1 VH with A3T, F24L, M34R, S42P, N52H, D58E, A75T, A80V, K83R, G101Q
VL: B1 VL with Q1L, R18K, S24G, N26T, Y33F, L45V, M77V, A82V, N86Y, S91N
notes: Mouse IgG, kappa light chain; also called clone #42; m42
In the case of B2, the “grade of loss of binding vs wild type” value in assay [1] and in assay [2] was 3 grade (3 => 95% loss of binding vs wild type) throughout.

B3: antibody 5 (antibody, V domains shown)
VH: B1 VH with A3T, S42P, N52H, D58E, P63S, D74A, A75T, G101S, D111N
VL: QVVLTQSPALMSASPGEKVTMTCSAGSSVSCMYWYQQKPGSSPRVLIYDTSNLASGVPARFTGSGSGTSYSLTISRMEAEDAASYYCQQWNSYPLTFGAGTKLELK
notes: Mouse IgG, kappa light chain; also called clone #5; purified antibody 5
For the molecule B3, the “grade of loss of binding vs wild type” value in assay [1] and in assay [2] was 3 grade (3 => 95% loss of binding vs wild type) throughout.

B4: antibody 44 (antibody, V domains shown)
VH: B1 VH with A3T, S42P, G44E, N52H, A75T, A80I, A85T, D91E, A98S
VL: QIVLTQSPAVMSASPGEKVTMTCTASSSVYYMYWYQQTPGSSPRLLIYDTSNLASGVPVRFSGSGSGTSYSLTISRMEAEDAATYYCQQWNTYPLTFGAGTKLELK
notes: Mouse IgG, kappa light chain; also called clone #44; m44
On to B4, for which the “grade of loss of binding vs wild type” value in assay [1] and in assay [2] was 3 grade (3 => 95% loss of binding vs wild type) throughout.

B5: antibody 22 (antibody, V domains shown)
VH: B1 VH with A3T, S42P, N52H, D58E, P63S, D74A, A75T, A80V, G101S, D111N
VL: B3 VL with C31Y, S84T
notes: Mouse IgG, kappa light chain; also called clone #22; m22
For B5, the “grade of loss of binding vs wild type” value in assay [1] and in assay [2] was 3 grade (3 => 95% loss of binding vs wild type) each time.

B6: antibody 34 (antibody, V domains shown)
VH: QVTLKESGPGILQPSQTLSLTCSFSGFSLSTFSLGVGWIRQSSGKGLEWLAHIWWDDEKYYNPALKSRLTISKDTSKNQVFLKIANVDAADTATYYCARAYYSKSYYALDYWGQGTSVTVSS
VL: DIQMTQSPSSLSASLGERVSLTCRASQEISGYLSWLQQKPDGTIKRLIYAASTLDSGVPKRFSGSRSGSDYSLAISSLESEDFADYYCLQYANFPFTFGSGTKLEIK
notes: Mouse IgG, kappa light chain; also called clone #34; m34
B6: the “grade of loss of binding vs wild type” value in assay [1] and in assay [2] was 3 grade (3 => 95% loss of binding vs wild type) each time.

B7: antibody 16 (antibody, V domains shown)
VH: QVTLKESGPGILQPSQTLSLTCSFSGFSLSTFALGVGWIRQPSGRGLEWLAHIWWDDDKYYNPALKSRLTISKDTSKNHVFLKIANVDTADTATYYCARITTYYYGMDYWGQGTSVTVSS
VL: DIVLSQSPATLSVTPGDSVSLFCRASQSIGNHLHWYQQESHASPRLLIKYASQSISGIPSRFSGSGSGTDFTLSINSVETEDFGMYFCQQSYNWPLTFGAGTKLELK
notes: Mouse IgG, kappa light chain; also called clone #16; m16
Take B7: the “grade of loss of binding vs wild type” value in assay [1] and in assay [2] was 3 grade (3 => 95% loss of binding vs wild type) throughout.

B8: antibody 3 (antibody, V domains shown)
VH: QVTLKESGPGILQPSQTLSLTCSFSGFSLTTFAMGIGWVRQPSGKGLEWLAHIWWDGEKYNNPVLKSRLTISKDTSKNQVFLRIANVDTPDTATYYCARISSIYYIIDNWGQGTSVTVSS
VL: B7 VL with S5T, D17H, F22S, G30S, H32N, Q38K, E39K, A42E, A51V
notes: Mouse IgG, kappa light chain; also called clone #3; purified antibody 3
For B8, the “grade of loss of binding vs wild type” value in assay [1] and in assay [2] was 3 grade (3 => 95% loss of binding vs wild type) in each case.

B9: antibody 50 (antibody, V domains shown)
VH: QVQLQQSGAELVRPGASVKVSCKASGYAFSNYLIEWVKQRPGQGLEWIGVINPGSGFTKYNEKFKGKATLTADKSSSTAYMQLSSLTSEDSAVYFCARGLYRAMDYWGQGTSVTVSS
VL: DIQMTQSPASQSASLGESVTITCLASQTIGTWLAWYQQKPGKSPQLLIYAAASLADGVPSRFSGGGSGTKFSFKISSLQAEDFVNYYCQQIYSTPYTFGGGTKLEIK
notes: Mouse IgG, kappa light chain; also called clone #50; purified antibody 50
For B9, the “grade of loss of binding vs wild type” value in assay [1] and in assay [2] was 3 grade (3 => 95% loss of binding vs wild type) in each case.
